Assay results published in patent US20080118498A1 (Eli Lilly, published 2008).

Tests used:
[1] = target: T1, C8 acylated human ghrelin (1-28) (human, n-octanoyl group on the serine at position three (Ser3)); assay: KinExA solution equilibrium; constant Fab, ghrelin titrated, free Fab captured on biotin-C8-ghrelin streptavidin beads
T1 construct: 28-residue peptide hormone; In the first KinExA experiment a biotinylated form was on the beads and the unlabelled peptide was titrated in solution; also called Human C8 ghrelin; human C8 acylated ghrelin (1-28)
Procedure: The KinExA 3000 instrument, manufactured by Sapidyne, is used to measure binding kinetics. Briefly, streptavidin is covalently coupled to azlactone beads. Biotinylated C8 acylated human ghrelin (1-28) is subsequently bound to these streptavidin beads. The binding of free anti-ghrelin Fab to the beads is detected on the instrument.
To measure Kds, individual tubes containing a constant concentration of 20-100 pM of Fab with decreasing serially diluted C8 acylated human ghrelin (1-28) are incubated for 18 h at 20° C. in 0.1% BSA, PBS. […] For example, clone 4a1 is used at a constant concentration of 20 pM and individual tubes are incubated with 0-20 nM of ghrelin. Incubations for other Fabs are set in a similar manner. After incubation, free Fab in each equilibrated sample is determined on the KinExA 3000 instrument according to the manufacturer's instructions. Kd values are determined using the KinExA 3000 software.

[2] = target: T1, C8 acylated human ghrelin (1-28); assay: BIAcore SPR; Mab amine-coupled to CM5 chip, ghrelin injected, n = 2
Procedure: (§1) The affinity (Kd) of humanized C2 anti-ghrelin Mabs is measured using a BIAcore® 2000 instrument containing a CM5 sensor chip. The BIAcore® utilizes the optical properties of surface plasmon resonance to detect alterations in protein concentration of interacting molecules within a dextran biosensor matrix. Except where noted, all reagents and materials are purchased from BIAcore® AB (Uppsala, Sweden). All measurements are performed at about 25° C. All samples containing either rat or human ghrelin (full length, C8- or C10-acylated, or desacylated) and anti-ghrelin Fab or Mab are diluted in HBS-EP buffer (150 mM sodium chloride, 3 mM EDTA, 0.005% (w/v) surfactant P-20, and 10 mM HEPES, pH 7.4). A capture antibody, goat anti-mouse kappa (Southern Biotechnology, Inc), or goat anti-mouse Fc gamma (Jackson ImmunoResearch), is immobilized onto flow cells using amine-coupling chemistry. Flow cells (1-4) are activated for 7 minutes with a 1:1 mixture of 0.1 M N-hydroxysuccinimide and 0.1 M 3-(N,N-dimethylamino)propyl-N-ethylcarbodiimide at a flow rate of 10 μl/min. The capture antibody, for example goat anti-mouse kappa, is diluted to 30 μg/mL in 10 mM sodium acetate, pH 4.5, and manually injected over all four flow cells at a flow rate of 10 μL/min. The surface density is monitored, and additional capture antibody is injected as needed to each individual cell until all flow cells reach a surface density of 4500-5000 response units (RU). Surfaces are blocked with a seven minute injection of 1 M ethanolamine-HCl, pH 8.5(10 μL/min). To ensure complete removal of any noncovalently bound capture antibody, 15 μL of 10 mM glycine, pH 1.5, are injected twice. Running buffer for kinetic experiments is HBS-EP buffer (150 mM sodium chloride, 3 mM EDTA, 0.005% (w/v) surfactant P-20, and 10 mM HEPES, pH 7.4). For C2_{—}4A1, 5A1, and 7A1, the antibody is directly coupled to a CM5 chip using the amine-coupling chemistry described above, aiming for a surface density of between 800-1000 RU.
(§2) Collection of kinetic binding data is performed at maximum flow rate (100 μL/min) and a low surface density to minimize mass transport effects.

[3] = target: T2, Rat C8 ghrelin (28 amino acids, C8-acylated) (rat, UniProt Q9QYH7 24-51, C8-acylated (n-octanoyl; octanoylated at Ser3 as told for rat ghrelin in paragraph 40)); assay: as above
T2 construct: mature; the assay used the 28-residue peptide; also called C8-acylated rat ghrelin
T2 peptide (looked up): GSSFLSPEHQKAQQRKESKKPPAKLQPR
Procedure: as §1, §2

Human C10 ghrelin (1-28) [4] = target: T3, Human C10 ghrelin (1-28) (human, n-decanoyl group on Ser3 (C10-acylated)); assay: BIAcore SPR; Fab captured by goat anti-mouse kappa, ghrelin injected, n = 3
T3 construct: also called decanoyl ghrelin (1-28)
Procedure: as §1, with “RU. […]” for “RU.”

[5] = target: T2, Rat C8 ghrelin (28 amino acids, …); assay: BIAcore SPR; Fab captured by goat anti-mouse kappa, ghrelin injected, n = 5
Procedure: as §1, with “RU. […]” for “RU.”

[6] = target: T1, C8 acylated human ghrelin (1-28); assay: BIAcore SPR; Fab captured by goat anti-mouse kappa, ghrelin injected, n = 8
Procedure: as §1, with “RU. […]” for “RU.”

[7] = target: T1, C8 acylated human ghrelin (1-28); assay: KinExA solution equilibrium; C8 ghrelin coupled to azlactone beads, n-curve analysis, n = 3
Procedure: (§3) Briefly, 10 μg human C8 acylated ghrelin (1-28) is covalently coupled to 50 mg azlactone beads (Sapidyne). […] For example, anti-ghrelin C2 murine Fab is used at a constant concentration of either 60, 600, or 6000 pM, and individual tubes are incubated with 0-60, 0-100, or 0-1000 nM of ghrelin, respectively. After the incubation, free Fab or Mab in each equilibrated sample is determined on the KinExA 3000 instrument according to the manufacturer's instructions. Kd values are assessed using the KinEkA 3000 n-curve analysis software.

[8] = target: T1, C8 acylated human ghrelin (1-28); assay: KinExA solution equilibrium; C8 ghrelin coupled to azlactone beads, n-curve analysis, n = 2
Procedure: as §3

Human C10 ghrelin (1-28) [9] = target: T3, Human C10 ghrelin (1-28); assay: BIAcore SPR; Mab captured by goat anti-mouse kappa or anti-mouse Fc gamma, ghrelin injected, n = 6
Procedure: as §1, with “RU. […]” for “RU.”

[10] = target: T2, Rat C8 ghrelin (28 amino acids, …); assay: BIAcore SPR; Mab captured by goat anti-mouse kappa or anti-mouse Fc gamma, ghrelin injected, n = 7
Procedure: as §1, with “RU. […]” for “RU.”

[11] = target: T1, C8 acylated human ghrelin (1-28); assay: BIAcore SPR; Mab captured by goat anti-mouse kappa or anti-mouse Fc gamma, ghrelin injected, n = 11
Procedure: as §1, with “RU. […]” for “RU.”

T1 sequence (peptide, as listed by the source): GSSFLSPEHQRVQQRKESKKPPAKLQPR

B1: C2 chimeric Fab (heavy and light chain variable regions of C2 murine Fab 1111 fused to human CH1 and CL domains) (Fab, V domains shown)
VH: EIQLQQSGAELMKPGASVKLSCKATGYIFTGYWIEWVKQRPGHGLEWIGEILPGSGSTNYNEKFKGKATFTADTSSNTANMQLSSLTTEDSAIYYCARYPQFRLRRERIAYWGQGTLVTVSV
VL: DLVLTQSPASLAVSLGQRATISCRASKSVSTSGYSYMHWYQQKPGQPPKLLIYLASNLESGVPARFSGSGSGTDFTLNIHPVEEEDAATYYCQHSRELPYTFGAGTKLELKR
- Kd [1]: 1.1 nM

B2: Mab C2 (murine VH/VL Fab 1111 sequences with rat Fc chimera) (antibody, V domains shown)
VH: EIQLQQSGAELMKPGASVKLSCKATGYIFTGYWIEWVKQRPGHGLEWIGEILPGSGSTNYNEKFKGKATFTADTSSNTANMQLSSLTTEDSAIYYCARYPQFRLRRERIAYWGQGTLVTVSV
VL: DLVLTQSPASLAVSLGQRATISCRASKSVSTSGYSYMHWYQQKPGQPPKLLIYLASNLESGVPARFSGSGSGTDFTLNIHPVEEEDAATYYCQHSRELPYTFGAGTKLELKR
notes: Chimera with rat Fc
- Kd [2]: 0.363 nM
- koff [2]: 0.0028 s⁻¹
- kon [2]: 7.4e+06 M⁻¹ s⁻¹
- Kd [3]: 0.687 nM
- koff [3]: 0.0019 s⁻¹
- kon [3]: 3.3e+06 M⁻¹ s⁻¹

B3: C2 murine Fab 1111 (Fab, V domains shown)
VH: EIQLQQSGAELMKPGASVKLSCKATGYIFTGYWIEWVKQRPGHGLEWIGEILPGSGSTNYNEKFKGKATFTADTSSNTANMQLSSLTTEDSAIYYCARYPQFRLRRERIAYWGQGTLVTVSV
VL: DLVLTQSPASLAVSLGQRATISCRASKSVSTSGYSYMHWYQQKPGQPPKLLIYLASNLESGVPARFSGSGSGTDFTLNIHPVEEEDAATYYCQHSRELPYTFGAGTKLELKR
notes: also called Anti-ghrelin C2 Fab (Fab1111)
- Kd (Human C10 ghrelin (1-28) [4]): 4.55 nM
- koff (Human C10 ghrelin (1-28) [4]): 0.0088 s⁻¹
- kon (Human C10 ghrelin (1-28) [4]): 2.1e+06 M⁻¹ s⁻¹
- Kd [5]: 1.23 nM
- koff [5]: 0.0016 s⁻¹
- kon [5]: 1.4e+06 M⁻¹ s⁻¹
- Kd [6]: 0.953 nM
- koff [6]: 0.0016 s⁻¹
- kon [6]: 1.7e+06 M⁻¹ s⁻¹
- Kd [7]: 1.03 nM

B4: Mab C2 (full murine sequence, i.e., Fab 1111 VH/VL and murine Fc) (antibody, V domains shown)
VH: EIQLQQSGAELMKPGASVKLSCKATGYIFTGYWIEWVKQRPGHGLEWIGEILPGSGSTNYNEKFKGKATFTADTSSNTANMQLSSLTTEDSAIYYCARYPQFRLRRERIAYWGQGTLVTVSV
VL: DLVLTQSPASLAVSLGQRATISCRASKSVSTSGYSYMHWYQQKPGQPPKLLIYLASNLESGVPARFSGSGSGTDFTLNIHPVEEEDAATYYCQHSRELPYTFGAGTKLELKR
notes: Full-length murine antibody with a kappa light chain (it was captured with anti-mouse kappa); also called Anti-ghrelin C2 Mab
- Kd [8]: 1.44 nM
- Kd (Human C10 ghrelin (1-28) [9]): 4.1 nM
- koff (Human C10 ghrelin (1-28) [9]): 0.0092 s⁻¹
- kon (Human C10 ghrelin (1-28) [9]): 1.9e+06 M⁻¹ s⁻¹
- Kd [10]: 2.6 nM
- koff [10]: 0.0018 s⁻¹
- kon [10]: 800000 M⁻¹ s⁻¹
- Kd [11]: 0.779 nM
- koff [11]: 0.0015 s⁻¹
- kon [11]: 2.4e+06 M⁻¹ s⁻¹

B5: Humanized, affinity matured C2 anti-ghrelin Fab 7b2 (Fab, V domains shown)
VH: QVQLVQSGAEVKKPGASVKVSCKATGYIFTGYWIEWVRQAPGQGLEWMGDILPGSGSPNYNEKFKGRVTMTTDTSTSTAYMELRSLRSDDTAVYYCARYPIFRLRTERIAEWGQGTLVTVSS
VL: DIVMTQSPDSLAVSLGERATINCRASKSVSLLGYSYMHWYQQKPGQPPKLLIYFASNLESGVPDRFSGSGSGTDFTLTISSLQAEDVAVYYCQHSIEEPYTFGQGTKLEIK
notes: Fab; The constant domains are not described
- Kd [1]: 0.0253 nM

B6: Humanized, affinity matured C2 anti-ghrelin Fab 7a1 (Fab, V domains shown)
VH: QVQLVQSGAEVKKPGASVKVSCKATGYIFTGYWIEWVRQAPGQGLEWMGDILPGSGSPNYNEKFKGRVTMTTDTSTSTAYMELRSLRSDDTAVYYCARYPIFRPRTERIAYWGQGTLVTVSS
VL: DIVMTQSPDSLAVSLGERATINCRASKSVSLLGYSYMHWYQQKPGQPPKLLIYFASNLESGVPDRFSGSGSGTDFTLTISSLQAEDVAVYYCQHSVEEPYTFGQGTKLEIK
notes: Fab; The constant domains are not described for this clone
- Kd [1]: 0.0042 nM

B7: Mab C2_5A1 (humanized, affinity matured VH/VL (Fab C2-5a1 sequences) with rat Fc chimeric C2 anti-ghrelin antibody) (antibody, V domains shown)
VH: QVQLVQSGAEVKKPGASVKVSCKATGYIFTGYWIEWVRQAPGQGLEWMGDILPGSGSPNYNEKFKGRVTMTTDTSTSTAYMELRSLRSDDTAVYYCARYPIFRLRTERIAEWGQGTLVTVSS
VL: DIVMTQSPDSLAVSLGERATINCRASKSVSLSGYSYMHWYQQKPGQPPKLLIYFASNLESGVPDRFSGSGSGTDFTLTISSLQAEDVAVYYCQHSIEEPYTFGQGTKLEIK
notes: Humanized VH/VL with rat Fc; also called C2-5a1 antibody
- Kd [2]: 0.013 nM
- koff [2]: 0.00012 s⁻¹
- kon [2]: 8.6e+06 M⁻¹ s⁻¹
- Kd [3]: 0.02 nM
- koff [3]: 0.00012 s⁻¹
- kon [3]: 6.6e+06 M⁻¹ s⁻¹

B8: Mab C2_7A1 (human VH/VL with rat Fc chimera) (antibody, V domains shown)
VH: QVQLVQSGAEVKKPGASVKVSCKATGYIFTGYWIEWVRQAPGQGLEWMGDILPGSGSPNYNEKFKGRVTMTTDTSTSTAYMELRSLRSDDTAVYYCARYPIFRPRTERIAYWGQGTLVTVSS
VL: DIVMTQSPDSLAVSLGERATINCRASKSVSLLGYSYMHWYQQKPGQPPKLLIYFASNLESGVPDRFSGSGSGTDFTLTISSLQAEDVAVYYCQHSVEEPYTFGQGTKLEIK
notes: Humanized VH/VL with rat Fc; The Mab is tied to the Fab 7a1 variable regions by its clone name only
- Kd [2]: 0.012 nM
- koff [2]: 0.00013 s⁻¹
- kon [2]: 1e+07 M⁻¹ s⁻¹

B9: Humanized, affinity matured C2 anti-ghrelin Fab 5a1 (Fab, V domains shown)
VH: QVQLVQSGAEVKKPGASVKVSCKATGYIFTGYWIEWVRQAPGQGLEWMGDILPGSGSPNYNEKFKGRVTMTTDTSTSTAYMELRSLRSDDTAVYYCARYPIFRLRTERIAEWGQGTLVTVSS
VL: DIVMTQSPDSLAVSLGERATINCRASKSVSLSGYSYMHWYQQKPGQPPKLLIYFASNLESGVPDRFSGSGSGTDFTLTISSLQAEDVAVYYCQHSIEEPYTFGQGTKLEIK
notes: Fab; The constant domains are not described for this clone; also called Fab C2-5a1
- Kd [1]: 0.001 nM
